In patent US20220017622A1 (Pfizer, published 2022):

Tests used:
[1] = biological target: T1, human CD3 (delta/epsilon heterodimer) (human, UniProt P07766 23-126; P04234 22-105); assay: SPR 37 C; CD3 delta/epsilon on anti-His chip, bispecific analyte; CD3 variant 2B5v598
T1 construct: captured on an anti-His chip, so it carries a His tag; also called huCD3

human B7-H4 on cells = biological target: T2, human B7-H4 on cells (human, UniProt Q7Z7D3 25-282); assay: cell-based or functional assay
T2 sequence (looked up): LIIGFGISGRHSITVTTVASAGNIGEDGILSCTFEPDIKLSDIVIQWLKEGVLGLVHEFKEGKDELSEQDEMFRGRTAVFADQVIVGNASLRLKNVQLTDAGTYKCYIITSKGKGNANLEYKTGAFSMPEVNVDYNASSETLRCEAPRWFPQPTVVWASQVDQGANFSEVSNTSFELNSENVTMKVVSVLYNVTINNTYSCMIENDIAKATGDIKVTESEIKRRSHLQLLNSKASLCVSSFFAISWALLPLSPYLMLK

[2] = biological target: T1, human CD3 (delta/epsilon heterodimer); assay: SPR 37 C; CD3 delta/epsilon on anti-His chip, bispecific analyte; CD3 variant 2B5c707
[3] = biological target: T3, cyno B7-H4 extracellular domain (cyno, UniProt Q7Z7D3 29-258 (human entry)); assay: SPR 37 C; IgG1 on anti-hFc chip, ECD analyte
T3 construct: Soluble ECD used as SPR analyte; also called cyB7-H4 ECD; cyB7-H4
T3 sequence: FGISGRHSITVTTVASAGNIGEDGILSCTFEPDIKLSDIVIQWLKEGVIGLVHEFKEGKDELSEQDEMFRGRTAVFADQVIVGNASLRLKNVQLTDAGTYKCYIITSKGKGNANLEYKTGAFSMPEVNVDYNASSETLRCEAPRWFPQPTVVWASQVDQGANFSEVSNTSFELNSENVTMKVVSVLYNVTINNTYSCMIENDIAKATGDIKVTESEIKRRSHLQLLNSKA

[4] = biological target: T4, mouse B7-H4 extracellular domain (mouse, UniProt Q7TSP5 29-258); assay: SPR 37 C; IgG1 on anti-hFc chip, ECD analyte
T4 construct: Soluble ECD used as SPR analyte; also called muB7-H4 ECD; muB7-H4
T4 sequence: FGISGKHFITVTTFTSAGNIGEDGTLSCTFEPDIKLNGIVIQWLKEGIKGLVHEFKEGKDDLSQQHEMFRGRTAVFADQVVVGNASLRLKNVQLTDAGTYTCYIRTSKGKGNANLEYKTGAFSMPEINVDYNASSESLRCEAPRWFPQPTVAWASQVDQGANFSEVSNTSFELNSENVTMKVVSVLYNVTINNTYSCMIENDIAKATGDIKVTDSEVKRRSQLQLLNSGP

[5] = biological target: T5, human B7-H4 extracellular domain (human, UniProt Q7Z7D3 29-258); assay: SPR 37 C; IgG1 on anti-hFc chip, ECD analyte;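 note: antibodies captured, then B7-H4 ECD injected at five 3-fold dilutions from 300 nM, 65 s association and 600 s dissociation, fitted to a 1:1 Langmuir model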
T5 construct: Soluble ECD used as SPR analyte; also called huB7-H4 ECD; huB7-H4
T5 sequence: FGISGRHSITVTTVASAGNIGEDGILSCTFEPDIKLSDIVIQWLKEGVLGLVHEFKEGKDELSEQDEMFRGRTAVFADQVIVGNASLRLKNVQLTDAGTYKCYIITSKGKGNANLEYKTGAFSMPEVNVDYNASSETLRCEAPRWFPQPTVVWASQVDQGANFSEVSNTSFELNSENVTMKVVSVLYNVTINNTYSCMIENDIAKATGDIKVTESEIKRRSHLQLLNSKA

T1 sequence (P07766 23-126, stated change not applied, chain 1 of 2): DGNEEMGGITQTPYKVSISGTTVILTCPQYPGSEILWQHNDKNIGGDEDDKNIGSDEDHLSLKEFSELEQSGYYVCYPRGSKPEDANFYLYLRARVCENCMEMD
T1 sequence (P04234 22-105, stated change not applied, chain 2 of 2): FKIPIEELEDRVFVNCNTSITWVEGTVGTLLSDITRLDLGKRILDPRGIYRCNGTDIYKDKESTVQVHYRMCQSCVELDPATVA

| Binder | Kd [1] | koff [1] | kon [1] | T cell mediated tumor cell killing EC50, HCC1954-Luc (human B7-H4 on cells) | T cell mediated tumor cell killing, MDA-MB-468 (human B7-H4 on cells) | Kd [2] | koff [2] | kon [2] | Kd [3] | koff [3] | kon [3] | Kd [4] | koff [4] | kon [4] | Kd [5] | koff [5] | kon [5] |
| --- | --- | --- | --- | --- | --- | --- | --- | --- | --- | --- | --- | --- | --- | --- | --- | --- | --- |
| B7-H4xCD3 bispecific antibody 0087 (bispecific antibody, IgG2, Chains 1-2: B7-H4 arm; chains 3-4: CD3 arm; IgG2; also called CD3 variant 2B5v598) heavy 1: QVQLQQWGAGLLKPSETLSLTCAVYGGSFSGYYWNWIRQPPGKGLEWIGEINHSGSTKYNPSLKSRVTISGDTSKNQFSLKLNSVTAADTAVYYCVRGLYNWNVDSWGQGTLVTVSSASTKGPSVFPLAPCSRSTSESTAALGCLVKDYFPEPVTVSWNSGALTSGVHTFPAVLQSSGLYSLSSVVTVPSSNFGTQTYTCNVDHKPSNTKVDKTVERKCEVECPECPAPPVAGPSVFLFPPKPKDTLMISRTPEVTCVVVAVSHEDPEVQFNWYVDGVEVHNAKTKPREEQFNSTFRVVSVLTVVHQDWLNGKEYKCKVSNKGLPSSIEKTISKTKGQPREPQVYTLPPSREEMTKNQVSLTCEVKGFYPSDIAVEWESNGQPENNYKTTPPMLDSDGSFFLYSKLTVDKSRWQQGNVFSCSVMHEALHNHYTQKSLSLSPG light 1: DIQMTQSPSSLSASVGDRVTITCRASQGIRNDLGWYQQKPGKAPKRLIYVASSLQSGVPSRFSGSGSGTEFTLTISSLQPEDFATYYCLQHNSYPYTFGQGTKLEIKRTVAAPSVFIFPPSDEQLKSGTASVVCLLNNFYPREAKVQWKVDNALQSGNSQESVTEQDSKDSTYSLSSTLTLSKADYEKHKVYACEVTHQGLSSPVTKSFNRGEC heavy 2: EVQLVESGGGLVQPGGSLRLSCAASGFTFSDYYMTWVRQAPGKGLEWVAFIRNQDRGYTSDHQPSVKGRFTISRDNAKNSLYLQMNSLRAEDTAVYYCARDRPSYYVLDYWGQGTTVTVSSASTKGPSVFPLAPCSRSTSESTAALGCLVKDYFPEPVTVSWNSGALTSGVHTFPAVLQSSGLYSLSSVVTVPSSNFGTQTYTCNVDHKPSNTKVDKTVERKCRVRCPRCPAPPVAGPSVFLFPPKPKDTLMISRTPEVTCVVVAVSHEDPEVQFNWYVDGVEVHNAKTKPREEQFNSTFRVVSVLTVVHQDWLNGKEYKCKVSNKGLPSSIEKTISKTKGQPREPQVYTLPPSREEMTKNQVSLTCLVKGFYPSDIAVEWESNGQPENNYKTTPPMLDSDGSFFLYSRLTVDKSRWQQGNVFSCSVMHEALHNHYTQKSLSLSPG light 2: DIQMTQSPSSLSASVGDRVTITCTSDQSLFNVRSGKNYLAWYQQKPGKAPKLLIYWASDRESGVPSRFSGSGSGTDFTLTISSLQPEDFATYYCKQSYDLFTFGGGTKVEIKRTVAAPSVFIFPPSDEQLKSGTASVVCLLNNFYPREAKVQWKVDNALQSGNSQESVTEQDSKDSTYSLSSTLTLSKADYEKHKVYACEVTHQGLSSPVTKSFNRGEC | 124 nM | 0.0254 s⁻¹ | 205000 M⁻¹ s⁻¹ | 57 nM | 109 |  |  |  |  |  |  |  |  |  |  |  |  |
| B7-H4xCD3 bispecific antibody 0088 (bispecific antibody, IgG2, Chains 1-2: B7-H4 arm; chains 3-4: CD3 arm; IgG2; also called CD3 variant 2B5c707) heavy 1: QVQLQQWGAGLLKPSETLSLTCAVYGGSFSGYYWNWIRQPPGKGLEWIGEINHSGSTKYNPSLKSRVTISGDTSKNQFSLKLNSVTAADTAVYYCVRGLYNWNVDSWGQGTLVTVSSASTKGPSVFPLAPCSRSTSESTAALGCLVKDYFPEPVTVSWNSGALTSGVHTFPAVLQSSGLYSLSSVVTVPSSNFGTQTYTCNVDHKPSNTKVDKTVERKCEVECPECPAPPVAGPSVFLFPPKPKDTLMISRTPEVTCVVVAVSHEDPEVQFNWYVDGVEVHNAKTKPREEQFNSTFRVVSVLTVVHQDWLNGKEYKCKVSNKGLPSSIEKTISKTKGQPREPQVYTLPPSREEMTKNQVSLTCEVKGFYPSDIAVEWESNGQPENNYKTTPPMLDSDGSFFLYSKLTVDKSRWQQGNVFSCSVMHEALHNHYTQKSLSLSPG light 1: DIQMTQSPSSLSASVGDRVTITCRASQGIRNDLGWYQQKPGKAPKRLIYVASSLQSGVPSRFSGSGSGTEFTLTISSLQPEDFATYYCLQHNSYPYTFGQGTKLEIKRTVAAPSVFIFPPSDEQLKSGTASVVCLLNNFYPREAKVQWKVDNALQSGNSQESVTEQDSKDSTYSLSSTLTLSKADYEKHKVYACEVTHQGLSSPVTKSFNRGEC heavy 2: EVQLVESGGGLVQPGGSLRLSCAASGFTFSDYYMTWVRQAPGKGLEWVAFIRNQARGYTSDHNPSVKGRFTISRDNAKNSLYLQMNSLRAEDTAVYYCARDRHSYYVLDYWGQGTTVTVSSASTKGPSVFPLAPCSRSTSESTAALGCLVKDYFPEPVTVSWNSGALTSGVHTFPAVLQSSGLYSLSSVVTVPSSNFGTQTYTCNVDHKPSNTKVDKTVERKCRVRCPRCPAPPVAGPSVFLFPPKPKDTLMISRTPEVTCVVVAVSHEDPEVQFNWYVDGVEVHNAKTKPREEQFNSTFRVVSVLTVVHQDWLNGKEYKCKVSNKGLPSSIEKTISKTKGQPREPQVYTLPPSREEMTKNQVSLTCLVKGFYPSDIAVEWESNGQPENNYKTTPPMLDSDGSFFLYSRLTVDKSRWQQGNVFSCSVMHEALHNHYTQKSLSLSPG light 2: DIQMTQSPSSLSASVGDRVTITCTSSQSLFNVRSQKNYLAWYQQKPGKAPKLLIYWASTRESGVPSRFSGSGSGTDFTLTISSLQPEDFATYYCKQSYYLFTFGGGTKVEIKRTVAAPSVFIFPPSDEQLKSGTASVVCLLNNFYPREAKVQWKVDNALQSGNSQESVTEQDSKDSTYSLSSTLTLSKADYEKHKVYACEVTHQGLSSPVTKSFNRGEC |  |  |  | 140 nM | 655 | 134 nM | 0.0689 s⁻¹ | 511000 M⁻¹ s⁻¹ |  |  |  |  |  |  |  |  |  |
| B7-H4 antibody 0052 (antibody, human IgG1, kappa, V domains shown, IgG1 mAb format; parental; also called 28D10) VH: QVQLQQWGAGLLKPSETLSLTCAVYGGSFSGYYWNWIRQPPGKGLEWIGEINHSGSTKYNPSLKSRVTISGDTSKNQFSLKLNSVTAADTAVYYCVRGLYNWNVDSWGQGTLVTVSS VL: DIQMTQSPSSLSASVGDRVTITCRASQGIRNDLGWYQQKPGKAPKRLIYVASSLQSGVPSRFSGSGSGTEFTLTISSLQPEDFATYYCLQHNSYPYTFGQGTKLEIKR |  |  |  |  |  |  |  |  | 30.7 nM | 0.00424 s⁻¹ | 139000 M⁻¹ s⁻¹ | 883 nM | 0.126 s⁻¹ | 143000 M⁻¹ s⁻¹ | 12.1 nM | 0.00565 s⁻¹ | 467000 M⁻¹ s⁻¹ |
